Reference: PMC12653191 (Journal of Fungi, 2025)

Target: T1, Candida glabrata Pbn1 (C. glabrata ATCC 2001, UniProt Q6FX62 1-416, N-glycosylation at N35, N319 and N365)
T1 construct: Pbn1, auxiliary subunit of GPI mannosyltransferase I, Candida glabrata ATCC 2001, UniProt Q6FX62, full length (416 amino acids); residues 2-408 are modelled in the structure; also called auxiliary subunit of GPI-MT-I; source: S. cerevisiae INVSc1, co-expressed with Gpi14, purified (Strep-Tactin, SEC); not shown: Twin-Strep II, N-terminal, kept
T1 sequence (looked up): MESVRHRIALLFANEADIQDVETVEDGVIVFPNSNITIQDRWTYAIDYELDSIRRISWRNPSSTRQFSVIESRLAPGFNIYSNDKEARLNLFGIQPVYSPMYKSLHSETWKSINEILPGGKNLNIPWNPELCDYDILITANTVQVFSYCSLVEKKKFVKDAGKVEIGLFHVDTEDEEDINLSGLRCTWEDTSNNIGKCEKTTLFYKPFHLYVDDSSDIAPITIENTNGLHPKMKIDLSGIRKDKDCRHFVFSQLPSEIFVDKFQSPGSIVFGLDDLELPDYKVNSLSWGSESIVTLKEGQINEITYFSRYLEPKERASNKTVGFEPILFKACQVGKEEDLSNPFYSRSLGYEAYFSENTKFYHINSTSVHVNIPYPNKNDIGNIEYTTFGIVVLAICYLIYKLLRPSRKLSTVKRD
Test: cryo-EM structure; Gpi14-Pbn1 complex co-expressed in S. cerevisiae, purified by Strep-Tactin on Pbn1 and SEC in 20 mM Hepes pH 7.4, 150 mM NaCl, 0.02% GDN; ~22 mg/mL; endogenous Dol-P-Man bound
Conditions: both partners purified

B1: Candida glabrata Gpi14 (enzyme, C. glabrata ATCC 2001, UniProt Q6FXQ5 1-431, looked up)
chain: MFKLGTIGLLSLAVLLRIAFFLFGVYQDEHFTVKYTDIDYQVFNDAAWFVAHRKSPYNRDTYRYTPLLSWLLLPNHMIPWFHFGKLIFVLCDLATGVLILQMLKKLKSKYRYGTDRMTIMAAIWLLNPMVITISTRGNAESVLCFLILSFLYCFLCEQYLLGGLLFGLSIHFKIYPIIYALPIAIYVAAAHYNKTQSVFKSSFKLFLVGFSTLIVLILLTVFMYMLYGDKFIDQTYLYHIYRTDHRHNFSVWNMLLYFNSALPKTSELSKFVFLPQMIIVLAISLTQLRRPSSFPLLCNVLFLETFAFVTFNKVCTSQYFIWYLIFLPFVLYNTRISMRRGIVMLVVWVATQALWLRQGYLLEFEGQNVFYPGLFCASVGFFVSNAWILGQFIEDTIIQNDYVYRIEPSESRSKDSAVIDKPAIAKTEKAE
notes: Gpi14, GPI mannosyltransferase I catalytic subunit, Candida glabrata ATCC 2001, UniProt Q6FXQ5, full length (431 amino acids); residues 2-408 are modelled in the structure; also called catalytic subunit of GPI-MT-I; source: S. cerevisiae INVSc1, co-expressed with Pbn1, purified (Strep-Tactin via Pbn1, SEC)
stoichiometry N: 1
